These results are taken from publication PMC11106421, “Myosin VI in the nucleolus of neurosecretory PC12 cells: its involvement in the maintenance of nucleolar structure and ribosome organization” (Frontiers in Physiology, 2024).

B1: fibrillarin (natural protein, rat (endogenous in PC12), UniProt P22509 1-327, looked up)
chain: MKPGFSPRGGGFGGRGGFGDRGGRGGGRGGRGGFGGGRGGFGGGGRGRGGGGGGFRGRGGGGGRGGGFQSGGGRGRGGGRGGKRGNQSGKNVMVEPHRHEGVFICRGKEDALVTKNLVPGESVYGEKRVSISEGDDKIEYRAWNPFRSKLAAAILGGVDQIHIKPGAKVLYLGAASGTTVSHVSDIVGPDGLVYAVEFSHRSGRDLINLAKKRTNIIPVIEDARHPHKYRMLIAMVDVIFADVAQPDQTRIVALNAHTFLRNGGHFVISIKANCIDSTASAEAVFASEVKKMQQENMKPQEQLTLEPYERDHAVVVGVYRPPPKAKN
notes: fibrillarin, endogenous in PC12 cells, detected with a mouse monoclonal anti-fibrillarin antibody; source: endogenous, PC12 cells (lysate or fixed cells)
B2: B23 (also termed nucleophosmin, NPM1) (natural protein, rat (endogenous in PC12), UniProt P13084 1-292, looked up)
chain: MEDSMDMDMSPLRPQNYLFGCELKADKDYHFKVDNDENEHQLSLRTVSLGAGAKDELHIVEAEAMNYEGSPIKVTLATLKMSVQPTVSLGGFEITPPVVLRLKCGSGPVHISGQHLVAVEEDAESEDEDEEDVKLLGMSGKRSAPGGGNKVPQKKVKLDEDDDEDDEDDEDDEDDDDDDFDEEETEEKVPVKKSVRDTPAKNAQKSNQNGKDLKPSTPRSKGQESFKKQEKTPKTPKGPSSVEDIKAKMQASIEKGGSLPKVEAKFINYVKNCFRMTDQEAIQDLWQWRKSL
notes: B23 / nucleophosmin, endogenous in PC12 cells, detected with a mouse monoclonal anti-B23 antibody; source: endogenous, PC12 cells (lysate or fixed cells)
B3: UBF (upstream binding factor) (natural protein, rat (endogenous in PC12), UniProt P25977 1-764, looked up)
chain: MNGEADCPTDLEMAAPKGQDRWSQEDMLTLLECMKNNLPSNDSSKFKTTESHMDWEKVAFKDFSGDMCKLKWVEISNEVRKFRTLTELILDAQEHVKNPYKGKKLKKHPDFPKKPLTPYFRFFMEKRAKYAKLHPEMSNLDLTKILSKKYKELPEKKKMKYIQDFQREKQEFERNLARFREDHPDLIQNAKKSDIPEKPKTPQQLWYTHEKKVYLKVRPDATTKEVKDSLGKQWSQLSDKKRLKWIHKALEQRKEYEEIMRDYIQKHPELNISEEGITKSTLTKAERQLKDKFDGRPTKPPPNSYSLYCAELMANMKDVPSTERMVLCSQQWKLLSQKEKDAYHKKCDQKKKDYEVELLRFLESLPEEEQQRVLGEEKMLNINKKQTTSPASKKPSQEGGKGGSEKPKRPVSAMFIFSEEKRRQLQEERPELSESELTRLLARMWNDLSEKKKAKYKAREAALKAQSERKPGGEREDRGKLPESPKRAEEIWQQSVIGDYLARFKNDRVKALKAMEMTWNNMEKKEKLMWIKKAAEDQKRYERELSEMRAPPAATNSSKKMKFQGEPKKPPMNGYQKFSQELLSNGELNHLPLKERMVEIGSRWQRISQSQKEHYKKLAEEQQRQYKVHLDLWVKSLSPQDRAAYKEYISNKRKNMTKLRGPNPKSSRTTLQSKSESEEDDDEEDDDDDDEEEEEDDENGDSSEDGGDSSESSSEDESEDGDENEDDDDDEDDDEDDDEDEDNESEGSSSSSSSSGDSSDSDSN
notes: source: endogenous, PC12 cells (lysate or fixed cells)

The target of the assay is T1, myosin VI (MVI), endogenous in PC12 cells (rat (endogenous in PC12), UniProt D4A5I9 1-1285).
T1 construct: myosin VI heavy chain, endogenous in PC12 cells; also called unconventional myosin VI; source: endogenous, PC12 cells (lysate or fixed cells)
T1 sequence (D4A5I9 entry or part of it): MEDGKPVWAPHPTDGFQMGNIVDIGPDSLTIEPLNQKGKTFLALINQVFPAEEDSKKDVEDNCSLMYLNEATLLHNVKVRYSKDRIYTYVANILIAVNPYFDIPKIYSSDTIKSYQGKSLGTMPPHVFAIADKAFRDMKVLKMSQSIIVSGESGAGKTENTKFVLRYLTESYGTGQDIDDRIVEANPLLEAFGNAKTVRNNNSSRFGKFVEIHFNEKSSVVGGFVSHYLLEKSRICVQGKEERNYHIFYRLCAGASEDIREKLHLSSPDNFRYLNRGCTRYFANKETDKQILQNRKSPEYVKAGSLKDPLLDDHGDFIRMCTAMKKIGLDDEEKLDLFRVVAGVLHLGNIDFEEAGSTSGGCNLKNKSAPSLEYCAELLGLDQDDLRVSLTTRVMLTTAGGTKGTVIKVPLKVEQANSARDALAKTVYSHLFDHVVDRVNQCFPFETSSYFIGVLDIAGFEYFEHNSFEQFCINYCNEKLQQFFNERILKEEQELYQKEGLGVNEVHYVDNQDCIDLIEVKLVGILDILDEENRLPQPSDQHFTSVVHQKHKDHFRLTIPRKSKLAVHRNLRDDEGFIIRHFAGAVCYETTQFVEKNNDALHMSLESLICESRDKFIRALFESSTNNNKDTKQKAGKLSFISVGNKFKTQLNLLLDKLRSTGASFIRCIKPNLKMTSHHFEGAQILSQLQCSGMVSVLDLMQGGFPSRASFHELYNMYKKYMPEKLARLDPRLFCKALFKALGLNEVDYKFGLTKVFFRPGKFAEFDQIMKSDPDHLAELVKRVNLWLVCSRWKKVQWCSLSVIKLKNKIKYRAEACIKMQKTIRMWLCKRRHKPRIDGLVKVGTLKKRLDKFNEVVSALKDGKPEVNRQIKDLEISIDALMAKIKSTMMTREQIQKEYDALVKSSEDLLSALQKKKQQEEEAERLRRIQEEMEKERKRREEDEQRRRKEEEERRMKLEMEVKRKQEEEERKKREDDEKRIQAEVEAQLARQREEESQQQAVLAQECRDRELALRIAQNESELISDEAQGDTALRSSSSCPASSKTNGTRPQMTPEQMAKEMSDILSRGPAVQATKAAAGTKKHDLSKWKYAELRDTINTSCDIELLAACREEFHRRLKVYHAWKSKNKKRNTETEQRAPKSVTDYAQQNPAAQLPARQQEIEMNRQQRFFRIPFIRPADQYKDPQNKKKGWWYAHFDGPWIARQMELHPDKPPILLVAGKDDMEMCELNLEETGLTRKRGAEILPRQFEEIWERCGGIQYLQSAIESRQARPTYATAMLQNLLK
Put plainly: proximity ligation; Duolink in situ PLA on fixed PC12 cells, rabbit anti-MVI with mouse monoclonal antibodies to the partner; foci counted per nucleus. To be noted: partners not purified.
In the case of B1, the “fraction of PLA foci-positive nuclei” value is around 65%.
As to B2, the “fraction of PLA foci-positive nuclei” value was around 57%.
Regarding B3, the “fraction of PLA foci-positive nuclei” value is around 36%.
